From US20220107327A1, “MULTI-TARGET CROSSLINKERS AND USES THEREOF” (The Regents of the University of California, published 2022) come the findings set out here.

The target of data set [1] is SSB (single-stranded DNA binding protein) (UniProt P0AGE0 P0AGE0:2-178). The experiment in a line: covalent crosslinking with NHQM + 365 nm UV, denaturing TBE-urea gel shift; 1.5 uM DNA, 0.2 mg/mL SSB, 37 C 30 min; no crosslink with BS3 or UV alone. The following applies: chain copies: 4.
Data set [2] deals with the molecule itself. Kind of data set: NHSF or BS2G cross-linking of purified GST; SDS-PAGE and Western blot under reducing and denatured conditions (homodimer). Background: Immunoblotting shows a protein as a band on a membrane.

SSB (single-stranded DNA binding protein), sequence (P0AGE0 2-178, one chain of several): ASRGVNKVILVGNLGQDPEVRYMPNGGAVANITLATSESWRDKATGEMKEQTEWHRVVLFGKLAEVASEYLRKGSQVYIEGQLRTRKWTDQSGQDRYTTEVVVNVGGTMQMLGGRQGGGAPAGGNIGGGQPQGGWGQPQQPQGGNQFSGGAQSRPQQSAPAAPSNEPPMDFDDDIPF

B1: 19(3x) (ssDNA)
DNA: TGTAGCTGTTGATCTAAGTTGTAGCTGTTGATCTAAGTTGTAGCTGTTGATCTAAGT
B1: the binding result in data set [1] was “binds”.

B2: ATC(4x) (ssDNA)
DNA: AATTCGCCAATGACAAGACGCTGGGCGGGGCCGGATCCATCATCATCATCTAGAAGCT
Regarding B2, the binding result in data set [1] is “binds”.

B3: E. coli wild type glutathione S-transferase (GST) (enzyme)
chain: MKLFYKPGACSLASHITLRESGKDFTLVSVDLMKKRLENGDDYFAVNPKGQVPALLLDDGTLLTEGVAIMQYLADSVPDRQLLAPVNSISRYKTIEWLNYIATELHKGFTPLFRPDTPEEYKPTVRAQLEKKLQYVNEALKDEHWICGQRFTIADAYLFTVLRWAYAVKLNLEGLEHIAAFMQRMAERPEVQDALSAEGLKHHHHHH
notes: Written as the single subunit
As to B3, the binding result in data set [2] is reported as “binds”.
